Starred links: 1 amine or outer side, 2 acyl side, 3 side chain; linkers in the order of their positions; H or OH if unused. Positions of bridges follow the written chain, without caps; N, C: chain ends. Non-standard residues stand in square brackets, D forms with d. Primed or numbered codes have the meaning given here. *: point of attachment. PyrS2″ = (S)-3-amino-1-((pent-4-en-1-yloxy)carbonyl)pyrrolidine-3-carboxylic acid (stapling residue), C=CCCCOC(=O)N1CC[C@@](N[*:1])(C(=O)[*:2])C1; Tf = trifluoromethylsulfonyl on Dap side-chain N ([Tf]Dap = (S)-2-amino-3-((trifluoromethyl)sulfonamido)propanoic acid), O=S(=O)(C(F)(F)F)*; B5(16) = 2-amino-2-(pent-4-en-1-yl)hept-6-enoic acid = 2,2-bis(4-pentenyl)glycine (stitching residue), C=CCCCC(CCCC=C)(N[*:1])C(=O)[*:2]; B5(4) = 2,2-bis(4-pentenyl)glycine = 2-amino-2-(pent-4-en-1-yl)hept-6-enoic acid (stitching residue), C=CCCCC(CCCC=C)(N[*:1])C(=O)[*:2]; B5(5) = 2,2-bis(4-pentenyl)glycine, 2-amino-2-(pent-4-en-1-yl)hept-6-enoic acid (stitching residue), C=CCCCC(CCCC=C)(N[*:1])C(=O)[*:2]; TfeGA = (S)-2-amino-3-((carboxymethyl)(2,2,2-trifluoroethyl)amino)propanoic acid, O=C([C@H](CN(CC(=O)[*:3])CC(F)(F)F)N[*:1])[*:2]; PyrS2 = (S)-3-amino-1-((pent-4-en-1-yloxy)carbonyl)pyrrolidine-3-carboxylic acid, C=CCCCOC(=O)N1CC[C@@](N[*:1])(C(=O)[*:2])C1; B5(12) = 2-amino-2-(pent-4-en-1-yl)hept-6-enoic acid (two olefin side chains), C=CCCCC(CCCC=C)(N[*:1])C(=O)[*:2]; B5(3) = 2,2-bis(4-pentenyl)glycine (stitching residue), C=CCCCC(CCCC=C)(N[*:1])C(=O)[*:2]; B5 = 2-amino-2-(pent-4-en-1-yl)hept-6-enoic acid, C=CCCCC(CCCC=C)(N[*:1])C(=O)[*:2]; Trp(6-Cl) = N[C@@H](Cc1c[nH]c2cc(Cl)ccc12)C(=O)O; Phe(3-COOH) = N[C@@H](Cc1cccc(C(=O)O)c1)C(=O)O; Phe(2-Cl) = N[C@@H](Cc1ccccc1Cl)C(=O)O; 1Nal = N[C@@H](Cc1cccc2ccccc12)C(=O)O; 2Nal = N[C@@H](Cc1ccc2ccccc2c1)C(=O)O; Bta = N[C@@H](Cc1csc2ccccc12)C(=O)O; αAllylPro = C=CC[C@@]1(C(=O)O)CCCN1; tBuAla = CC(C)(C)C[C@H](N)C(=O)O; 3Thi = N[C@@H](Cc1ccsc1)C(=O)O; Cha = N[C@@H](CC1CCCCC1)C(=O)O; Cit = NC(=O)NCCC[C@H](N)C(=O)O; S8 = C=CCCCCCC[C@](C)(N)C(=O)O; hSer = N[C@@H](CCO)C(=O)O; Dap = NC[C@H](N)C(=O)O
B1: I-630 (peptide)
peptide: Ac-[αAllylPro]DI[B5(4)][Dap](Tf)EAAFQ[S8]F[Bta]Q-NH2
modifications: staple 1-4, 4-11
B2: I-632 (peptide)
peptide: Ac-[αAllylPro][Dap](Tf)I[B5(4)]DEAAFQ[S8]F[Bta]Q-NH2
modifications: staple 1-4, 4-11
B3: I-631 (peptide)
peptide: Ac-[αAllylPro]DI[B5(4)][Dap](Tf)EAAFQ[S8]F[Bta]Q-NH2
modifications: staple 1-4, 4-11
B4: I-628 (peptide)
peptide: Ac-[αAllylPro]DL[B5(4)]DEAAF[Cit][S8]F[Bta]-NH2
modifications: staple 1-4, 4-11
B5: I-626 (peptide)
peptide: Ac-[αAllylPro]D[Cha][B5(4)]DEAAFN[S8]F[Bta]-NH2
modifications: staple 1-4, 4-11
B6: I-627 (peptide)
peptide: Ac-[αAllylPro]D[Cha][B5(4)]DEAAFN[S8]F[Bta]-NH2
modifications: staple 1-4, 4-11
B7: I-1020 (peptide)
peptide: Ac-[αAllylPro]D[tBuAla][B5(5)]DNAAFS[PyrS2″][Phe(2-Cl)][Bta]S-NH2
modifications: staple 1-4, 4-11
B8: I-629 (peptide)
peptide: Ac-[αAllylPro]DL[B5(16)]DEAAF[Cit][S8]F[Bta]-NH2
modifications: staple 1-4, 4-11; not fully specified; printed as Ac-PL3-Asp-Leu-B5-Asp-Glu-Ala-Ala-Phe-Cit-S8-Phe-BztA-NH2
B9: I-992 (peptide)
peptide: Ac-[αAllylPro]D[tBuAla][B5(3)]D[TfeGA]AAFF[PyrS2″][Phe(2-Cl)][Bta][hSer]-NH2
modifications: staple 1-4, 4-11
B10: I-979 (peptide)
peptide: Ac-[αAllylPro]D[tBuAla][B5(4)]D[Phe(3-COOH)]AAFS[PyrS2″][3Thi][Bta]Q-NH2
modifications: staple 1-4, 4-11; also: later eluting HPLC staple isomer
B11: I-980 (peptide)
peptide: Ac-[αAllylPro]D[tBuAla][B5(4)]D[Phe(3-COOH)]AAFT[PyrS2″][3Thi][Bta]Q-NH2
modifications: staple 1-4, 4-11; also: earlier eluting HPLC staple isomer
B12: I-982 (peptide)
peptide: Ac-[αAllylPro]D[tBuAla][B5(3)]D[Phe(3-COOH)]AAFF[PyrS2″][3Thi][Bta]S-NH2
modifications: staple 1-4, 4-11; also: earlier eluting HPLC isomer
B13: I-981 (peptide)
peptide: Ac-[αAllylPro]D[tBuAla][B5(4)]D[Phe(3-COOH)]AAFT[PyrS2″][3Thi][Bta]Q-NH2
modifications: staple 1-4, 4-11; also: later eluting HPLC staple isomer
B14: I-991 (peptide)
peptide: Ac-[αAllylPro]D[tBuAla][B5(3)]D[TfeGA]AAFF[PyrS2″][Phe(2-Cl)][Bta]T-NH2
modifications: staple 1-4, 4-11
B15: I-989 (peptide)
peptide: Ac-[αAllylPro]D[tBuAla][B5(3)]D[TfeGA]AAFF[PyrS2″]Y[Bta]Q-NH2
modifications: staple 1-4, 4-11
B16: I-995 (peptide)
peptide: Ac-[αAllylPro]D[tBuAla][B5(3)]D[TfeGA]AAFS[S8][Phe(2-Cl)][Bta]Q-NH2
modifications: staple 1-4, 4-11
B17: I-984 (peptide)
peptide: Ac-[αAllylPro]D[tBuAla][B5(3)]D[Phe(3-COOH)]AAFS[PyrS2″][3Thi][Bta]S-NH2
modifications: staple 1-4, 4-11; also: earlier eluting HPLC isomer
B18: I-985 (peptide)
peptide: Ac-[αAllylPro]D[tBuAla][B5(3)]D[Phe(3-COOH)]AAFS[PyrS2″][3Thi][Bta]S-NH2
modifications: staple 1-4, 4-11; also: later eluting HPLC isomer
B19: I-983 (peptide)
peptide: Ac-[αAllylPro]D[tBuAla][B5(3)]D[Phe(3-COOH)]AAFF[PyrS2″][3Thi][Bta]S-NH2
modifications: staple 1-4, 4-11; also: later eluting HPLC isomer
B20: I-855 (peptide)
peptide: Ac-[αAllylPro]D[tBuAla][B5(12)]DNAAFF[PyrS2][3Thi][Bta]Q-NH2
modifications: staple 1-4, 4-11
B21: I-843 (peptide)
peptide: Ac-[αAllylPro]D[tBuAla][B5(4)]DYAAFN[PyrS2][3Thi][Bta]H-NH2
modifications: staple 1-4, 4-11
B22: I-845 (peptide)
peptide: Ac-[αAllylPro]D[tBuAla][B5(4)]DTAAFN[PyrS2][3Thi][Bta]H-NH2
modifications: staple 1-4, 4-11
B23: I-856 (peptide)
peptide: Ac-[αAllylPro]D[tBuAla][B5(12)]DNAAFL[PyrS2][3Thi][Bta]Q-NH2
modifications: staple 1-4, 4-11
B24: I-1019: Ac-PL3-Asp-Npg-B5-Asp-Asp-Ala-Ala-Phe-Ser-PyrS2-2C1F-BztA-Ser-NH2 (peptide)
peptide: Ac-[αAllylPro]D[tBuAla][B5(16)]DDAAFS[PyrS2″][Phe(2-Cl)][Bta]S-NH2
modifications: staple 1-4, 4-11; not fully specified; printed as Ac-PL3-Asp-Npg-B5-Asp-Asp-Ala-Ala-Phe-Ser-PyrS2-2C1F-BztA-Ser-NH2
B25: I-794 (peptide)
peptide: Ac-[αAllylPro]D[tBuAla][B5]DDAAFN[PyrS2][1Nal][Bta]H-NH2
modifications: staple 1-4, 4-11
B26: I-805 (peptide)
peptide: Ac-[αAllylPro]D[tBuAla][B5(3)]DDAAF[Cit][PyrS2″][3Thi][Bta]Q-NH2
modifications: staple 1-4, 4-11
B27: I-804 (peptide)
peptide: Ac-[αAllylPro]D[tBuAla][B5(3)]DDAAF[hSer][PyrS2″][3Thi][Bta]H-NH2
modifications: staple 1-4, 4-11
B28: I-802 (peptide)
peptide: Ac-[αAllylPro]D[tBuAla][B5]DDAAFL[PyrS2][3Thi][Bta]H-NH2
modifications: staple 1-4, 4-11
B29: I-806 (peptide)
peptide: Ac-[αAllylPro]D[tBuAla][B5(3)]DDAAF[Cit][PyrS2″][3Thi][Bta]H-NH2
modifications: staple 1-4, 4-11
B30: I-795 (peptide)
peptide: Ac-[αAllylPro]D[tBuAla][B5]DDAAFN[PyrS2][2Nal][Bta]H-NH2
modifications: staple 1-4, 4-11
B31: I-798 (peptide)
peptide: Ac-[αAllylPro]D[tBuAla][B5]DDAAFN[PyrS2][3Thi][Trp(6-Cl)]H-NH2
modifications: staple 1-4, 4-11

molecular target: full-length beta-Catenin (Uniprot ID P35222) (Homo sapiens (Human)) (UniProt P35222); test: fluorescence polarization competition; full-length beta-catenin, competitor 5FAM-TCF4 10-53

IC50 [nM]	Binder
5000	B1
5000	B2
5000	B3
60	B4
5000	B5
338	B6
52	B7
36	B8

molecular target: full-length beta-Catenin (Uniprot ID P35222) (Homo sapiens (Human)) (UniProt P35222); test: fluorescence polarization competition; displaces 5FAM-TCF4(10-53) from full-length beta-catenin
Target sequence in this assay (P35222 2-781 limits assumed): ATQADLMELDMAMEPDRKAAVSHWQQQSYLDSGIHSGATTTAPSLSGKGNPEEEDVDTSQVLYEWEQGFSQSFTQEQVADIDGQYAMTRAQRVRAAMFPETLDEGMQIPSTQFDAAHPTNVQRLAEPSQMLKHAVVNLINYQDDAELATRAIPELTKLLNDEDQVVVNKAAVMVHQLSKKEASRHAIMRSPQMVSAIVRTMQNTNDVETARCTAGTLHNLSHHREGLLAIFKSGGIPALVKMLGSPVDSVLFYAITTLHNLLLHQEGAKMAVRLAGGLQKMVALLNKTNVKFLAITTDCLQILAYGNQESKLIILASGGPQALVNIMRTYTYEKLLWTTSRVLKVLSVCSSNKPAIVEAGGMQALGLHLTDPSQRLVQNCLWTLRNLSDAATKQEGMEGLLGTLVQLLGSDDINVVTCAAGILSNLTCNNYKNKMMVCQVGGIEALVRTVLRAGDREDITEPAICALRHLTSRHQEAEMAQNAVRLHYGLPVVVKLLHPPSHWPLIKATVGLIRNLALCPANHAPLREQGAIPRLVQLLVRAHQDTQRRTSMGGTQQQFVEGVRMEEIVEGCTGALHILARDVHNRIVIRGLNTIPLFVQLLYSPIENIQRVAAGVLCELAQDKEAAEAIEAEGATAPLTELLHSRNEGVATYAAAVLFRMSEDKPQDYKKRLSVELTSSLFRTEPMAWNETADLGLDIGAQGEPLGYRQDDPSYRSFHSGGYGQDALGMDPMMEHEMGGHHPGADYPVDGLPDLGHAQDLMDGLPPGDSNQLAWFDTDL

EC50 [nM]	Binder
52	B7

molecular target: full-length beta-Catenin (Uniprot ID P35222) (Homo sapiens (Human)) (UniProt P35222); test: fluorescence polarization competition; full-length beta-catenin, competitor probe 5FAM-TCF4(10-53)
Target sequence in this assay (P35222 2-781 limits assumed): as above

IC50 [nM]	Binder
59	B9
240	B10
221	B11
190	B12
374	B13
51	B14
87	B15
55	B16
179	B17
430	B18
118	B19

molecular target: full-length beta-Catenin (Uniprot ID P35222) (Homo sapiens (Human)) (UniProt P35222); test: fluorescence polarization competition; displacement of 5FAM-TCF4(10-53) from full-length beta-catenin
Target sequence in this assay (P35222 whole entry): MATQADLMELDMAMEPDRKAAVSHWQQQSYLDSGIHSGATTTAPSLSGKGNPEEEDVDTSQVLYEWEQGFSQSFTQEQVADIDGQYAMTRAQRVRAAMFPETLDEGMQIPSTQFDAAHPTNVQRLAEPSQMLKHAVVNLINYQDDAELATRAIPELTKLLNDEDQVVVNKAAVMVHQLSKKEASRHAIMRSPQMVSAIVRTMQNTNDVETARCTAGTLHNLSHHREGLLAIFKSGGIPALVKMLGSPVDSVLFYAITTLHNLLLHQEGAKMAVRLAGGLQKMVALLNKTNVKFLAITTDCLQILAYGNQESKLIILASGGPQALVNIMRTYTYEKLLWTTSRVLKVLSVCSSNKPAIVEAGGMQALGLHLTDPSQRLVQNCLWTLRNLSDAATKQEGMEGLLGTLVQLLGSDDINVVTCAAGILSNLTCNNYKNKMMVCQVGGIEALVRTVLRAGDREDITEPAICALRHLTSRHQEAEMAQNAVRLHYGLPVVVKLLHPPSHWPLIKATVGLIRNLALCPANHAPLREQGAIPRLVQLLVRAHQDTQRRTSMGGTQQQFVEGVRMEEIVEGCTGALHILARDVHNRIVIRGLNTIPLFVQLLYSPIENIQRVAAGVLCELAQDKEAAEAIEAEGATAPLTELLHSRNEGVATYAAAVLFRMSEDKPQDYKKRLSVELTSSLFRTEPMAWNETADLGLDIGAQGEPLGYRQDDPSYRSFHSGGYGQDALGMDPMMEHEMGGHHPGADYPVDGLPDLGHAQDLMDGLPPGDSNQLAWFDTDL

IC50 [nM]	Binder
22	B20
154	B21
7	B22
17	B23

molecular target: full-length beta-Catenin (Uniprot ID P35222) (Homo sapiens (Human)) (UniProt P35222); test: fluorescence polarization competition; full-length beta-catenin with 5FAM-labeled TCF4 (10-53) probe as competitor
Target sequence in this assay (P35222 whole entry): as above

EC50 [nM]	Binder
59	B9
240	B10
221	B11
190	B12
199	B13
51	B14
87	B15
55	B16
179	B17
301	B18
118	B19

molecular target: full-length beta-Catenin (Uniprot ID P35222) (Homo sapiens (Human)) (UniProt P35222); test: fluorescence polarization competition; 10 nM full-length beta-catenin with 10 nM 5FAM-TCF4(10-53) probe as competitor
Target sequence in this assay (P35222 2-781 limits assumed): as the sequence (P35222 2-781 limits assumed) above

IC50 [nM]	Binder
5	B24
19	B25
5	B26
5	B27
6	B28
5	B29
176	B30
106	B31

molecular target: full-length beta-Catenin (Uniprot ID P35222) (Homo sapiens (Human)) (UniProt P35222); test: fluorescence polarization competition: peptide titrated against 10 nM full-length beta-catenin + 10 nM 5FAM-TCF4(10-53) probe
Target sequence in this assay (P35222 2-781 limits assumed): as above

EC50 [nM]	Binder
19	B25
5	B26
5	B27
6	B28
5	B29
176	B30
106	B31

molecular target: full-length beta-Catenin (Uniprot ID P35222) (Homo sapiens (Human)) (UniProt P35222); test: fluorescence polarization competition; peptide titrated against 10 nM full-length beta-catenin + 10 nM 5FAM-TCF4(10-53) probe
Target sequence in this assay (P35222 whole entry): as the sequence (P35222 whole entry) above

EC50 [µM]	Binder
5	B1
5	B2
5	B3
0.713	B4
5	B5
0.338	B6
0.685	B8

molecular target: full-length beta-Catenin (Uniprot ID P35222) (Homo sapiens (Human)) (UniProt P35222); test: fluorescence polarization competition; 10 nM full-length beta-catenin with 10 nM 5FAM-TCF4 (residues 10-53) probe as competitor
Target sequence in this assay (P35222 2-781 limits assumed): as the sequence (P35222 2-781 limits assumed) above

EC50 [nM]	Binder
22	B20
154	B21
7	B22
17	B23
